Target: Bacteriorhodopsin from Halobium salinarum expressed in E. coli (Halobium salinarum) (UniProt P02945)
Assay: crystal structure; in meso nanovolume crystallisation in monooleoyl-based lipid mesophase, protein 20 mg/ml, 1.5M Na/K-Pi pH 5.6, 22°C; space group C2, three monomers in the asymmetric unit; 1.9 Å

stoichiometry N: 3
Substance: Bacteriorhodopsin from Halobium salinarum expressed in E. coli (from UniProt P02945 14-262) (natural protein)

From paper PMC4457421
